Consider 125 sequences from the supplement of paper PMC9112550, “Optimization of the antimicrobial peptide Bac7 by deep mutational scanning” (BMC Biology, 2022).

In the data set the test system is Escherichia coli TOP10. Briefly: shrunken log2 fold change of peptide-encoding DNA abundance (4.5 h post-induction vs induction); higher = less antimicrobial activity (less host growth inhibition). The conditions noted are these: time post-induction: 4.5 h; library: site-saturation at positions 5, 18, 19, 20.
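Further: peptides expressed intracellularly from a pBAD plasmid library in pooled LB shake-flask culture, induced with 0.3% L-arabinose, DNA abundance read by NGS, three biological replicates, DESeq2 with apeglm shrinkage.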

As to RRIRCRPPRLPRPRPRPRKFPRP, the “shrunken log2 fold change” value was -0.00353.

With RRIRCRPPRLPRPRPRPPERPRP, the “shrunken log2 fold change” value is 0.576.

For the sequence RRIRARPPRLPRPRPRPSHEPRP, the “shrunken log2 fold change” value was 0.415.

Take RRIRARPPRLPRPRPRPHDHPRP: the “shrunken log2 fold change” value was -0.0299.

Turning to RRIRIRPPRLPRPRPRPKQLPRP, the “shrunken log2 fold change” value was -0.0927.

Turning to RRIRVRPPRLPRPRPRPDNCPRP, the “shrunken log2 fold change” value is -0.0588.

As for RRIRFRPPRLPRPRPRPFHAPRP, the “shrunken log2 fold change” value was -0.393.

On to RRIRERPPRLPRPRPRPYIKPRP, for which the “shrunken log2 fold change” value is -0.573.

As for RRIRCRPPRLPRPRPRPCFLPRP, the “shrunken log2 fold change” value was -0.622.

Take RRIRGRPPRLPRPRPRPVIFPRP: the “shrunken log2 fold change” value amounted to 0.598.

In the case of RRIRFRPPRLPRPRPRPRKVPRP, the “shrunken log2 fold change” value worked out at 0.352.

With RRIRIRPPRLPRPRPRPHAEPRP, the “shrunken log2 fold change” value is -0.217.

For RRIRLRPPRLPRPRPRPHCKPRP, the “shrunken log2 fold change” value was -0.708.

Consider RRIRYRPPRLPRPRPRPDWGPRP, for which the “shrunken log2 fold change” value is -0.0597.

Turning to RRIRLRPPRLPRPRPRPWEQPRP, the “shrunken log2 fold change” value is -0.206.

With RRIRARPPRLPRPRPRPWAVPRP, the “shrunken log2 fold change” value worked out at 0.295.

Regarding RRIRFRPPRLPRPRPRPHFLPRP, the “shrunken log2 fold change” value was -0.827.

Regarding RRIRDRPPRLPRPRPRPRCMPRP, the “shrunken log2 fold change” value was -0.158.

As for RRIRGRPPRLPRPRPRPMDGPRP, the “shrunken log2 fold change” value was -0.0481.

As for RRIRCRPPRLPRPRPRPEYVPRP, the “shrunken log2 fold change” value was -0.244.

As to RRIRCRPPRLPRPRPRPYWVPRP, the “shrunken log2 fold change” value is -0.528.

As to RRIRHRPPRLPRPRPRPRMYPRP, the “shrunken log2 fold change” value is -0.194.

RRIRKRPPRLPRPRPRPFTAPRP: the “shrunken log2 fold change” value is -0.291.

For RRIRLRPPRLPRPRPRPQTIPRP, the “shrunken log2 fold change” value is -0.234.

As to RRIRWRPPRLPRPRPRPKPRPRP, the “shrunken log2 fold change” value stood at 0.236.

In the case of RRIRARPPRLPRPRPRPRCCPRP, the “shrunken log2 fold change” value is 0.582.

Turning to RRIRGRPPRLPRPRPRPVADPRP, the “shrunken log2 fold change” value was 1.34.

Consider RRIRSRPPRLPRPRPRPVCDPRP, for which the “shrunken log2 fold change” value was found to be 0.327.

Consider RRIRVRPPRLPRPRPRPWFHPRP, for which the “shrunken log2 fold change” value is -0.711.

For the sequence RRIRQRPPRLPRPRPRPVIPPRP, the “shrunken log2 fold change” value was -1.12.

RRIRVRPPRLPRPRPRPEQSPRP: the “shrunken log2 fold change” value came out at 0.362.

In the case of RRIRCRPPRLPRPRPRPNKSPRP, the “shrunken log2 fold change” value was -0.584.

Take RRIRGRPPRLPRPRPRPSGEPRP: the “shrunken log2 fold change” value was found to be 0.598.

Consider RRIRPRPPRLPRPRPRPYQWPRP, for which the “shrunken log2 fold change” value was -0.124.

As to RRIRPRPPRLPRPRPRPSDIPRP, the “shrunken log2 fold change” value is -0.417.

Consider RRIRQRPPRLPRPRPRPQVHPRP, for which the “shrunken log2 fold change” value came out at 0.0124.

For RRIRIRPPRLPRPRPRPKPVPRP, the “shrunken log2 fold change” value was determined as 0.101.

As for RRIRARPPRLPRPRPRPYNNPRP, the “shrunken log2 fold change” value was -0.817.

Turning to RRIRSRPPRLPRPRPRPHQCPRP, the “shrunken log2 fold change” value is -0.325.

Consider RRIRCRPPRLPRPRPRPMQLPRP, for which the “shrunken log2 fold change” value was -0.239.

As to RRIRFRPPRLPRPRPRPVHQPRP, the “shrunken log2 fold change” value was 0.124.

Regarding RRIRRRPPRLPRPRPRPYLPPRP, the “shrunken log2 fold change” value is -0.456.

RRIRTRPPRLPRPRPRPFGQPRP: the “shrunken log2 fold change” value is -0.0675.

RRIRCRPPRLPRPRPRPDRWPRP: the “shrunken log2 fold change” value came out at 0.0613.

For the sequence RRIRIRPPRLPRPRPRPPETPRP, the “shrunken log2 fold change” value was 0.246.

As for RRIRYRPPRLPRPRPRPVAYPRP, the “shrunken log2 fold change” value was -0.926.

In the case of RRIRPRPPRLPRPRPRPKWMPRP, the “shrunken log2 fold change” value was -0.158.

For the sequence RRIRNRPPRLPRPRPRPDFNPRP, the “shrunken log2 fold change” value was -0.186.

Take RRIRCRPPRLPRPRPRPALAPRP: the “shrunken log2 fold change” value was 0.475.

As for RRIRKRPPRLPRPRPRPAQNPRP, the “shrunken log2 fold change” value amounted to 0.943.

Turning to RRIRSRPPRLPRPRPRPTEMPRP, the “shrunken log2 fold change” value is 0.233.

Take RRIRSRPPRLPRPRPRPFGSPRP: the “shrunken log2 fold change” value was -0.178.

In the case of RRIRARPPRLPRPRPRPEKKPRP, the “shrunken log2 fold change” value turned out to be 0.275.

Regarding RRIRLRPPRLPRPRPRPKPMPRP, the “shrunken log2 fold change” value was determined as 0.964.

As to RRIRNRPPRLPRPRPRPSPSPRP, the “shrunken log2 fold change” value is -0.0323.

Regarding RRIRSRPPRLPRPRPRPINEPRP, the “shrunken log2 fold change” value is -0.249.

For the sequence RRIRERPPRLPRPRPRPDIIPRP, the “shrunken log2 fold change” value was found to be 0.0463.

In the case of RRIRSRPPRLPRPRPRPLMEPRP, the “shrunken log2 fold change” value is -0.0249.

For RRIRYRPPRLPRPRPRPWLMPRP, the “shrunken log2 fold change” value is -0.0285.

RRIRVRPPRLPRPRPRPICDPRP: the “shrunken log2 fold change” value was -0.0949.

Turning to RRIRVRPPRLPRPRPRPNSLPRP, the “shrunken log2 fold change” value worked out at 0.0679.

For RRIRCRPPRLPRPRPRPGNVPRP, the “shrunken log2 fold change” value is -0.357.

Consider RRIRTRPPRLPRPRPRPGRWPRP, for which the “shrunken log2 fold change” value was determined as 0.393.

For the sequence RRIRRRPPRLPRPRPRPRNWPRP, the “shrunken log2 fold change” value stood at 0.319.

For the sequence RRIRGRPPRLPRPRPRPKNGPRP, the “shrunken log2 fold change” value was 0.0583.

As to RRIRSRPPRLPRPRPRPTPLPRP, the “shrunken log2 fold change” value was determined as 0.159.

Take RRIRGRPPRLPRPRPRPFLMPRP: the “shrunken log2 fold change” value stood at 0.364.

For the sequence RRIRHRPPRLPRPRPRPVSCPRP, the “shrunken log2 fold change” value is 0.011.

As for RRIRNRPPRLPRPRPRPVLQPRP, the “shrunken log2 fold change” value is -0.157.

RRIRCRPPRLPRPRPRPDPGPRP: the “shrunken log2 fold change” value came to 0.112.

For the sequence RRIRHRPPRLPRPRPRPGSEPRP, the “shrunken log2 fold change” value worked out at 0.176.

As to RRIRDRPPRLPRPRPRPSENPRP, the “shrunken log2 fold change” value is -0.0386.

As to RRIRYRPPRLPRPRPRPCYGPRP, the “shrunken log2 fold change” value is -0.211.

Consider RRIRTRPPRLPRPRPRPKSIPRP, for which the “shrunken log2 fold change” value is -0.194.

In the case of RRIRMRPPRLPRPRPRPMADPRP, the “shrunken log2 fold change” value worked out at 1.11.

RRIRKRPPRLPRPRPRPESIPRP: the “shrunken log2 fold change” value was determined as 0.235.

RRIRNRPPRLPRPRPRPGLEPRP: the “shrunken log2 fold change” value was -0.0966.

Consider RRIRIRPPRLPRPRPRPHVAPRP, for which the “shrunken log2 fold change” value was -0.189.

For RRIRYRPPRLPRPRPRPKETPRP, the “shrunken log2 fold change” value was -0.00674.

Turning to RRIRGRPPRLPRPRPRPWPFPRP, the “shrunken log2 fold change” value worked out at 0.745.

Turning to RRIRCRPPRLPRPRPRPNSHPRP, the “shrunken log2 fold change” value is -0.556.

For the sequence RRIRHRPPRLPRPRPRPIRFPRP, the “shrunken log2 fold change” value is -0.00142.

For the sequence RRIRKRPPRLPRPRPRPHDTPRP, the “shrunken log2 fold change” value was -0.0804.

As to RRIRMRPPRLPRPRPRPCIQPRP, the “shrunken log2 fold change” value is -0.214.

On to RRIRMRPPRLPRPRPRPPVDPRP, for which the “shrunken log2 fold change” value was determined as 1.14.

Take RRIRNRPPRLPRPRPRPDHMPRP: the “shrunken log2 fold change” value was -0.00141.

For RRIRQRPPRLPRPRPRPSFCPRP, the “shrunken log2 fold change” value came out at 0.462.

For RRIRERPPRLPRPRPRPAPMPRP, the “shrunken log2 fold change” value was 0.116.

For the sequence RRIRHRPPRLPRPRPRPRRQPRP, the “shrunken log2 fold change” value amounted to 0.0256.

Consider RRIRGRPPRLPRPRPRPLTTPRP, for which the “shrunken log2 fold change” value was 1.82.

Turning to RRIRWRPPRLPRPRPRPDSVPRP, the “shrunken log2 fold change” value is -0.0816.

RRIRQRPPRLPRPRPRPTEDPRP: the “shrunken log2 fold change” value worked out at 0.0148.

Regarding RRIRGRPPRLPRPRPRPFDHPRP, the “shrunken log2 fold change” value is -0.0514.

With RRIRIRPPRLPRPRPRPNNHPRP, the “shrunken log2 fold change” value is -1.03.

RRIRQRPPRLPRPRPRPKPKPRP: the “shrunken log2 fold change” value came to 0.278.

As to RRIRDRPPRLPRPRPRPNTNPRP, the “shrunken log2 fold change” value is -0.448.

In the case of RRIRMRPPRLPRPRPRPFSKPRP, the “shrunken log2 fold change” value was -0.284.

Take RRIRWRPPRLPRPRPRPCIYPRP: the “shrunken log2 fold change” value was -0.162.

On to RRIRIRPPRLPRPRPRPVYRPRP, for which the “shrunken log2 fold change” value is 0.00778.

RRIRDRPPRLPRPRPRPPDCPRP: the “shrunken log2 fold change” value was found to be 0.077.

Turning to RRIRVRPPRLPRPRPRPYFCPRP, the “shrunken log2 fold change” value is -0.483.

As to RRIRGRPPRLPRPRPRPYCSPRP, the “shrunken log2 fold change” value was -0.0241.

For the sequence RRIRERPPRLPRPRPRPCNHPRP, the “shrunken log2 fold change” value was -0.567.

On to RRIRPRPPRLPRPRPRPRAIPRP, for which the “shrunken log2 fold change” value worked out at 0.503.

As to RRIRDRPPRLPRPRPRPNMCPRP, the “shrunken log2 fold change” value is -0.0431.

With RRIRNRPPRLPRPRPRPDNQPRP, the “shrunken log2 fold change” value was -0.323.

In the case of RRIRPRPPRLPRPRPRPTWSPRP, the “shrunken log2 fold change” value turned out to be 0.324.

On to RRIRMRPPRLPRPRPRPSWLPRP, for which the “shrunken log2 fold change” value turned out to be 0.0725.

In the case of RRIRNRPPRLPRPRPRPPYMPRP, the “shrunken log2 fold change” value was -1.13.

With RRIRSRPPRLPRPRPRPMVVPRP, the “shrunken log2 fold change” value was 0.149.

For RRIRNRPPRLPRPRPRPYALPRP, the “shrunken log2 fold change” value is -0.399.

On to RRIRGRPPRLPRPRPRPIVQPRP, for which the “shrunken log2 fold change” value is 0.606.

Regarding RRIRPRPPRLPRPRPRPLFAPRP, the “shrunken log2 fold change” value amounted to 0.206.

Consider RRIRLRPPRLPRPRPRPVYDPRP, for which the “shrunken log2 fold change” value is -0.0147.

Consider RRIRQRPPRLPRPRPRPWFRPRP, for which the “shrunken log2 fold change” value is -0.145.

As for RRIRKRPPRLPRPRPRPQCFPRP, the “shrunken log2 fold change” value was -0.0263.

For RRIRQRPPRLPRPRPRPQERPRP, the “shrunken log2 fold change” value was -0.00247.

With RRIRKRPPRLPRPRPRPSWTPRP, the “shrunken log2 fold change” value was -0.0691.

Regarding RRIRYRPPRLPRPRPRPHQKPRP, the “shrunken log2 fold change” value was -0.248.

Turning to RRIRIRPPRLPRPRPRPYMPPRP, the “shrunken log2 fold change” value is -1.27.

On to RRIRKRPPRLPRPRPRPYYRPRP, for which the “shrunken log2 fold change” value is -0.827.

For the sequence RRIRWRPPRLPRPRPRPTHRPRP, the “shrunken log2 fold change” value came out at 0.8.

With RRIRTRPPRLPRPRPRPVSIPRP, the “shrunken log2 fold change” value is -0.082.

Turning to RRIRNRPPRLPRPRPRPCWDPRP, the “shrunken log2 fold change” value was found to be 0.125.

With RRIRKRPPRLPRPRPRPVGYPRP, the “shrunken log2 fold change” value was 0.00938.
